From IntAct's records for PubMed 18555782

Molecular target: hsp7f_yeast SSE1 (UniProt P32589)
Sequence (P32589 whole entry): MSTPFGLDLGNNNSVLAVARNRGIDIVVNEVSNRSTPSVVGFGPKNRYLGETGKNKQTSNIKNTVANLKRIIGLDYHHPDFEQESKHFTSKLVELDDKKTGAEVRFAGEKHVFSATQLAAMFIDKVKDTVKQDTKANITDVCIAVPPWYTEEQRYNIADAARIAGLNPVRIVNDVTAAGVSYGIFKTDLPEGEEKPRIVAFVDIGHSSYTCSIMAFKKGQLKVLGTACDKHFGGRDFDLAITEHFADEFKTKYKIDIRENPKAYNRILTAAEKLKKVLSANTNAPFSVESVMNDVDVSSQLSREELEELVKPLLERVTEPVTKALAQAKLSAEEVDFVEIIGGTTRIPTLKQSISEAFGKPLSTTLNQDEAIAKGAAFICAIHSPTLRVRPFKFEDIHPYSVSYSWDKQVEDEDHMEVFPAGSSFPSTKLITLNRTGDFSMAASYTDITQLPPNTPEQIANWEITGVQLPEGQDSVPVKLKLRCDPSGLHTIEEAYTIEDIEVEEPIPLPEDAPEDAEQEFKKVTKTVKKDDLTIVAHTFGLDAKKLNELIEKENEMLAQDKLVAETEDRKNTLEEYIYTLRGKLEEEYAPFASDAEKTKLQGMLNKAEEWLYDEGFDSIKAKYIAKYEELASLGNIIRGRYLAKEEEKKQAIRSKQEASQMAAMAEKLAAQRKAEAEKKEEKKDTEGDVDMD

Row | Substance | effect of a mutation on the interaction
1 | Heat shock protein SSA1 (Saccharomyces cerevisiae), P10591 A297E | decreasing interaction
2 | Heat shock protein SSA1 (Saccharomyces cerevisiae), P10591 Q31A | decreasing interaction
